Measurements published in patent publication US20210403579A1 (DELINIA, published 2021).

T1: Human ST2 (human, UniProt Q01638 19-328, limits assumed)
T1 construct: also called human ST2 protein; Interleukin 1 receptor-like 1
T1 sequence (looked up): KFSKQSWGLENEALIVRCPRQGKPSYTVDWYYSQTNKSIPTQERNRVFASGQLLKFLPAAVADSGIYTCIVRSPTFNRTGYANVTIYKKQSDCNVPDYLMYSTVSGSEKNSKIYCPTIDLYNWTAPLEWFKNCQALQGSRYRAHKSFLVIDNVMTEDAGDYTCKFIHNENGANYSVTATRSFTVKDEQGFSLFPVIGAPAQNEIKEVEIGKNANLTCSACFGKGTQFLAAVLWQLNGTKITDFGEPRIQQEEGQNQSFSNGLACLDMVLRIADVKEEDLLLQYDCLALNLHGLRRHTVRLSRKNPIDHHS


target: T1, Human ST2; experiment: SPR (Carterra), antibody immobilized, ST2 analyte
Description: Binding of the reformatted human ST2 antibodies to the human and mouse ST2 proteins was evaluated by surface plasmon resonance (SPR), using a high throughput antibody screening and characterization platform from Carterra (Salt Lake City, Utah).

| Binder | Kd [nM] | koff [s⁻¹] | kon [M⁻¹ s⁻¹] |
| --- | --- | --- | --- |
| Human ST2 IgG1 Antibody 26 (antibody, V domains shown, IgG1; also called ST2 Antibody 26) VH: QVQLVQSGAEVKKPGSSVKVSCKASGYTFSDYYMHWVRQAPGQGLEWMGGILPVFGTATYAQKFQGRVTITADESTSTAYMELSSLRSEDTAVYYCARGFGYFDYWGQGTLVTVSS VL: not shown | 264 | 0.14 | 530000 |
| Human ST2 IgG1 Antibody 21 (antibody, V domains shown, IgG1; also called ST2 Antibody 21) VH: QVQLVQSGAEVKKPGASVKVSCKASGYTFSNHYMHWVRQAPGQGLEWMGWVNPTSGNTGYAQKFQGRVTMTRDTSTSTVYMELSSLRSEDTAVYYCARDLGVTYFDLWGRGTLVTVSS VL: DIQMTQSPSSLSASVGDRVTITCRASQGISSWLAWYQQKPGKAPKLLIYEASHLETGVPSRFSGSGSGTDFTLTISSLQPEDFATYYCLQDYNYPLTFGGGTKVEIKR | 805 | 0.017 | 21000 |
| Human ST2 IgG1 Antibody 29 (antibody, V domains shown, IgG1; also called ST2 Antibody 29) VH: QVQLVQSGAEVKKPGASVKVSCKASGGTFTGYFIHWVRQAPGQGLEWMGWMNPNSGNTGYAQKFQGRVTMTRDTSTSTVYMELSSLRSEDTAMYYCAREGQGVVPVDYWGQGTLVTVSS VL: DIQMTQSPSSLSASVGDRVTITCRASQSISSWLAWYQQKPGKAPKLLIYDATNLETGVPSRFSGSGSGTDFTLTISSLQPEDFATYYCLQDYNYPLTFGQSTKVEIKR | 480 | 0.0065 | 14000 |
| Human ST2 IgG1 Antibody 24 (antibody, V domains shown, IgG1; also called ST2 Antibody 24) VH: QVQLVQSGAEVKKPGSSVKVSCKASGGTFSSYAISWVRQAPGQGLEWMGGIIPIFGTANYAQKFQGRVTITADESTSTAYMELSSLRSEDTAVYYCAKTPLGRGYGLFDYWGQGTLVTVSS VL: not shown | 1200 | 0.055 | 45000 |
| Human ST2 IgG1 Antibody 23 (antibody, V domains shown, IgG1; also called ST2 Antibody 23) VH: EVQLLESGGGLVKPGGSLRLSCAASGFTFSSYWMHWVRQAPGKGLEWVSSISSRSSYIYYADSVKGRFTISRDDSKNTLYLQMNSLKTEDTAVYYCAREGNGMDVWGQGTTVTVSS VL: DIQMTQSPSSLSASVGDRVTITCQASQDIGSYLNWYQQKPGKAPKLLIYAASSLQSGVPSRFSGSGSGTDFTLTISSLQPEDFATYYCLQSYSTPFTFGGGTKVEIKR | 688 | 0.1 | 150000 |
| Human ST2 IgG1 Antibody 27 (antibody, V domains shown, IgG1; also called ST2 Antibody 27) VH: QVQLVQSGAEVKKPGASVKVSCKASGYTFTGQYMHWVRQAPGQGLEWMGIINPSGGSTSYAQKFQGRVTMTRDTSTSTVYMELSSLRSEDTAVYYCAGSYYPYYYYGMDVWGQGTTVTVSS VL: DIQMTQSPSSLSASVGDRVTITCRASQNIGYFLHWYQQKPGKAPKLLIYAASSLQSGVPSRFSGSGSGTDFTLTISSLQPEDFATYYCQQSYSPPLTFGGGTKVEIKR | 106 | 0.048 | 450000 |
| Human ST2 IgG1 Antibody 31 (antibody, V domains shown, IgG1; also called ST2 Antibody 31) VH: QVQLVQSGAEVKKPGSSVKVSCKASGGTFSTYAFSWVRQAPGQGLEYMGGIIPMFGTANYAQKFQGRVTITADESTSTAYMELSSLRSEDTAVYYCAGERGYGSLDYWGQGTLVTVSS VL: DIQMTQSPSSLSASVGDRVTITCRASQGIGSWLAWYQQKPGKAPKLLIYAASSLQSGVPSRFSGSGSGTDFTLTISSLQPEDFATYYCQQSYTFPYTFGQGTKLEIKR | 274 | 0.12 | 430000 |
| Human ST2 IgG1 Antibody 25 (antibody, V domains shown, IgG1; also called ST2 Antibody 25) VH: QVQLVQSGAEVKKPGSSVKVSCKASGGTFSNYAISWVRQAPGQGLEWMGWISAYNGNTNYAQKFQGRVTMTRDTSTSTVYMELSSLRSEDTAVYYCARSTNALDYWGQGTLVTVSS VL: DIQMTQSPSSLSASVGDRVTITCRASQGIRSNLDWYQQKPGKAPKLLISIVSNLGSGVPSRFSGSGSGTDFTLTISSLQPEDFATYYCLQHNSNPPTFGGGTKVEIKR | 193 | 0.03 | 150000 |
| Human ST2 IgG1 Antibody 32 (antibody, V domains shown, IgG1; also called ST2 Antibody 32) VH: EVQLLESGGGLVQPGGSLRLSCAASGFTFSNSDMNWVRQAPGKGLEWVSFISSSSGYTYYADSVKGRFTISRDNSKNTLYLQMNSLRAEDTAVYYCARANNNWNFYFDYWGQGTLVTVSS VL: DIQMTQSPSSLSASVGDRVTITCRASQSINNWLAWYQQKPGKAPKLLIYSASSLQSGVPSRFSGSGSGTDFTLTISSLQPEDFATYYCQQSYDTPITFGQGTKVEIKR | 252 | 0.061 | 240000 |
| Human ST2 IgG1 Antibody 28 (antibody, V domains shown, IgG1; also called ST2 Antibody 28) VH: QVQLVQSGAEVKKPGSSVKVSCKASGGTFGNYGINWVRQAPGQGLEWMGGIIPVFGTTNYAQKFQGRVTITADESTSTAYMELSSLRSEDTAVYYCARGLRYYYGMDVWGQGTTVTVSS VL: DIVMTQSPLSLPVTPGEPASISCRSSQSLLHSNGYNYLDWYLQKPGQSPQLLIYGASTLQSGVPDRFSGSGSGTDFTLKISRVEAEDVGVYYCMQALQNPLTFGGGTKVEIKR | 426 | 0.066 | 160000 |
| Human ST2 IgG1 Antibody 30 (antibody, V domains shown, IgG1; also called ST2 Antibody 30) VH: QVQLVQSGAEVKKPGSSVKVSCKASGYTFTTYGITWVRQAPGQGLEWMGGIIPIFGTANYAQKFQGRVTITADESTSTAYMELSSLRSEDTAVYYCAKLSGSSGSWDYYYYYGMDVWGQGTLVTVSS VL: DIVMTQSPLSLPVTPGEPASISCRSSQSLLHSNGYNYLDWYLQKPGQSPQLLIYAASNLQSGVPDRFSGSGSGTDFTLKISRVEAEDVGVYYCMQALQTPITFGQSTRLEIKR | 155 | 0.029 | 190000 |
| Human ST2 IgG1 Antibody 22 (antibody, V domains shown, IgG1; also called ST2 Antibody 22) VH: EVQLLESGGGLVQPGGSLRLSCAASGFKFRTFWMNWVRQAPGKGLEWVSVISNGGDATHYADSVKGRFTISRDNSKNTLYLQMNSLRAEDTAVYYCARVDCSGGSCYLGYWGQGTLVTVSS VL: DIQMTQSPSSLSASVGDRVTITCRASESIGRYLNWYQQKPGKAPKLLIYGTSNLESGVPSRFSGSGSGTDFTLTISSLQPEDFATYYCQQSYSTPPTFGQGTKVEIKR | 90 | 0.048 | 530000 |

More lines, now with the values ahead:

| Kd [nM] | koff [s⁻¹] | kon [M⁻¹ s⁻¹] | Binder |
| --- | --- | --- | --- |
| 17 | 0.0053 | 310000 | Human ST2 IgG1 Antibody 38 (antibody, V domains shown, IgG1; also called ST2 Antibody 38) VH: QVQLVQSGAEVKKPGSSVKVSCKASGGTFSSYAISWVRQAPGQGLEWMGTIIPMFGIADYAQKFQGRVTITADESTSTAYMELSSLRSEDTAVYYCARSSRSSSWYNWYFDLWGRGTLVTVSS VL: EIVMTQSPATLSVSPGERATLSCRASQSISSSYLAWYQQKPGQAPRLLIYGASTRATGIPARFSGSGSGTEFTLTISSLQSEDFAVYYCQQYYTTPWTFGQGTKVEIKR |
| 104 | 0.016 | 160000 | Human ST2 IgG1 Antibody 35 (antibody, V domains shown, IgG1; also called ST2 Antibody 35) VH: QVQLVQSGAEVKKPGASVKVSCKASAYTFTSYGISWLRQAPGQGLEWMGWINPNSGNTGYAHKFQGRVTMTRDTSTSTVYMELSSLRSEDTAVYYCARGGSGWPTWGQGTLVTVSS VL: DIQMTQSPSSLSASVGDRVTITCQASQDISNYLNWYQQKPGKAPKLLIYGASSLQSGVPSRFSGSGSGTDFTLTISSLQPEDFATYYCQQANTFPFTFGPGTKVDIKR |
| 529 | 0.13 | 240000 | Human ST2 IgG1 Antibody 33 (antibody, V domains shown, IgG1; also called ST2 Antibody 33) VH: QVQLVQSGAEVKKPGSSVKVSCKASGDTFDTYAISWVRQAPGQGLEWMGGIIPIFGTANYAQKFQGRVTITADESTSTAYMELSSLRSEDTAVYYCARSRGRGYSYGSGLFDYWGQGTLVTVSS VL: DIVMTQSPLSLPVTPGEPASISCRSSESLLITNGFNYIDWYLQKPGQSPQLLIYLGSNRAAGVPDRFSGSGSGTDFTLKISRVEAEDVGVYYCMQALQTPITFGQGTKVEIKR |
| 57 | 0.022 | 390000 | Human ST2 IgG1 Antibody 39 (antibody, V domains shown, IgG1; also called ST2 Antibody 39) VH: QVQLVQSGAEVKKPGSSVKVSCKASGYTFTSYYMQWVRQAPGQGLEWMGGIIPIFGTANYAQKFQGRVTITADESTSTAYMELSSLRSEDTAVYYCARARFGAVDYWGQGTLVTVSS VL: not shown |
| 109 | 0.0011 | 10000 | Human ST2 IgG1 Antibody 34 (antibody, V domains shown, IgG1; also called ST2 Antibody 34) VH: QVQLVQSGAEVKKPGASVKVSCKASGQTFTDYAINWVRQAPGQGLEWMGWMNPNSGNTGYAQKFQGRVTMTRDTSTSTVYMELSSLRSEDTAVYYCARETLEQQLPFDYWGQGTLVTVSS VL: DIQMTQSPSSLSASVGDRVTITCRASQSISSWLAWYQQKPGKAPKLLIYAASTLQSGVPSRFSGSGSGTDFTLTISSLQPEDFATYYCQQYYSTLYTFGQGTKVEIKR |
| 691 | 0.12 | 180000 | Human ST2 IgG1 Antibody 40 (antibody, V domains shown, IgG1; also called ST2 Antibody 40) VH: QVQLVQSGAEVKKPGASVKVSCKASGYTFTSYYIHWVRQAPGQGLEWMGIINPSADTTTYAQQFQGRVTMTRDTSTSTVYMELSSLRSEDTAVYYCARTPGNYGGNSLGYYYYYGMDVWGQGTLVTVSS VL: DIQMTQSPSSLSASVGDRVTITCRASQSVGTWLAWYQQKPGKAPKLLIYAASTLQSGVPSRFSGSGSGTDFTLTISSLQPEDFATYYCQQSYSSPLTFGPGTKVDIKR |
| 264 | 0.14 | 510000 | Human ST2 IgG1 Antibody 36 (antibody, V domains shown, IgG1; also called ST2 Antibody 36) VH: QVQLVQSGAEVKKPGASVKVSCKASGYTFTSYGISWVRQAPGQGLEWMGWIDPNSGGTNYAQKFQGRVTMTRDTSTSTVYMELSSLRSEDTAVYYCARDDWFSGDLDYWGQGTLVTVSS VL: DIQMTQSPSSLSASVGDRVTITCRASQGIDSWLAWYQQKPGKAPKLLIYAASKLQGGVPSRFSGSGSGTDFTLTISSLQPEDFATYYCQQGYSTPITFGQGTKVDIKR |
| 138 | 0.085 | 620000 | Human ST2 IgG1 Antibody 37 (antibody, V domains shown, IgG1; also called ST2 Antibody 37) VH: EVQLLESGGGLVQPGGSLRLSCAASGFTFTDAWMNWVRQAPGKGLEWVSTISVSVGVTYYADSVKGRFTISRDNSKNTLYLQMNSLRAEDTAVYYCATIGSMATIRKGATDAFDIWGQGTLVTVSS VL: DIQMTQSPSSLSASVGDRVTITCRASQRINSYLNWYQQKPGKAPKLLIYAASTLQSGVPSRFSGSGSGTDFTLTISSLQPEDFATYYCQQSYSTPPTFGGGTKVEIKR |
